Results as given in IntAct's records for PubMed 17380128.

B1: Retinoblastoma-associated protein (Homo sapiens), P06400 (parent)
chain: MPPKTPRKTAATAAAAAAEPPAPPPPPPPEEDPEQDSGPEDLPLVRLEFEETEEPDFTALCQKLKIPDHVRERAWLTWEKVSSVDGVLGGYIQKKKELWGICIFIAAVDLDEMSFTFTELQKNIEISVHKFFNLLKEIDTSTKVDNAMSRLLKKYDVLFALFSKLERTCELIYLTQPSSSISTEINSALVLKVSWITFLLAKGEVLQMEDDLVISFQLMLCVLDYFIKLSPPMLLKEPYKTAVIPINGSPRTPRRGQNRSARIAKQLENDTRIIEVLCKEHECNIDEVKNVYFKNFIPFMNSLGLVTSNGLPEVENLSKRYEEIYLKNKDLDARLFLDHDKTLQTDSIDSFETQRTPRKSNLDEEVNVIPPHTPVRTVMNTIQQLMMILNSASDQPSENLISYFNNCTVNPKESILKRVKDIGYIFKEKFAKAVGQGCVEIGSQRYKLGVRLYYRVMESMLKSEEERLSIQNFSKLLNDNIFHMSLLACALEVVMATYSRSTSQNLDSGTDLSFPWILNVLNLKAFDFYKVIESFIKAEGNLTREMIKHLERCEHRIMESLAWLSDSPLFDLIKQSKDREGPTDHLESACPLNLPLQNNHTAADMYLSPVRSPKKKGSTTRVNSTANAETQATSAFQTQKPLKSTSLSLFYKKVYRLAYLRLNTLCERLLSEHPELEHIIWTLFQHTLQNEYELMRDRHLDQIMMCSMYGICKVKNIDLKFKIIVTAYKDLPHAVQETFKRVLIKEEEYDSIIVFYNSVFMQRLKTNILQYASTRPPTLSPIPHIPRSPYKFPSSPLRIPGGNIYISPLKSPYKISEGLPTPTKMTPRSRILVSIGESFGTSEKFQKINQMVCNSDRVLKRSAEGSNPPKPLKKLRFDIEGSDEADGSKHLPGESKFQQKLAEMTSTRTRMQKQKMNDSMDTSNKEEK

Variants of: B1
Settings: with e2f1_human E2F1, Q01094
Chain of e2f1_human E2F1, Q01094 (Q01094 whole entry): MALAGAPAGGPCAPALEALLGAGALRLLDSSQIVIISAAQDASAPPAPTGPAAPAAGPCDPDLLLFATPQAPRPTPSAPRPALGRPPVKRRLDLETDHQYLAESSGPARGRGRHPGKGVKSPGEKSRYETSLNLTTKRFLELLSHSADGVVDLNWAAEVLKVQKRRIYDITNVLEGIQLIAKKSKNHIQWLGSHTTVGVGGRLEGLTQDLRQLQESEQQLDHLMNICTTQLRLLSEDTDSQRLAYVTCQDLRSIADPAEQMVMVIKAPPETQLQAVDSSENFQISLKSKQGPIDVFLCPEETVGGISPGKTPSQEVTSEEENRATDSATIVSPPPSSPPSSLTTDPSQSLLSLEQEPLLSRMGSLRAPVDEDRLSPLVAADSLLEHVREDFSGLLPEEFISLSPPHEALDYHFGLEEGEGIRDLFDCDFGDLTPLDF

effect of a mutation on the interaction | Variant
decreasing interaction | S612A
